Data: CN110577603A (BEIJING DONGFANG BIOTECH CO LTD, dated 2019)

T1: CD19 (on Raji lymphoma cells) (UniProt P15391 20-556, limits assumed)
T1 construct: whole, on cells; Raji is a human cell line; also called CD19抗原; 细胞表面CD19
T1 sequence (looked up): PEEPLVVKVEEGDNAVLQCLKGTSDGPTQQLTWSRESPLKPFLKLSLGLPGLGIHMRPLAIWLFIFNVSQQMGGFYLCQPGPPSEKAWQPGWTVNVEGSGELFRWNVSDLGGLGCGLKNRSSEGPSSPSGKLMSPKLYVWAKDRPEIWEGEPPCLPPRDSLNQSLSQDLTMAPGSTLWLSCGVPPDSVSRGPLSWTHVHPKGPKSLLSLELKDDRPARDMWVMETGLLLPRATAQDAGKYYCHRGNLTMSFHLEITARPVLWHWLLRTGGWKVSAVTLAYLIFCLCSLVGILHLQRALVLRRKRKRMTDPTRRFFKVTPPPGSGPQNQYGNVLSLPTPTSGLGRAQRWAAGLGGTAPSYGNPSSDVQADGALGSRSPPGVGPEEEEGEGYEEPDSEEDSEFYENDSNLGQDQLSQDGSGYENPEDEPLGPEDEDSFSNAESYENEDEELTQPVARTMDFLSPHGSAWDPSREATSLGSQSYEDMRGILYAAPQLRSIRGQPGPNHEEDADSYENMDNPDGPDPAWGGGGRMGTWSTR

B1: 抗CD3和抗CD19双特异性抗体 JY039 (bispecific antibody)
chain (part 1 of 2): not shown
chain (part 2 of 2): not shown
heavy: QVQLQQSGAELVRPGSSVKISCKASGYAFSSYWMNWVKQRPGQGLEWIGQIWPGDGDTNYNGKFKGKATLTADESSSTAYMQLSSLASEDSAVYFCARRETTTVGRYYYAMDYWGQGTTVTVSS
light: DIQLTQSPASLAVSLGQRATISCKASQSVDYDGDSYLNWYQQIPGQPPKLLIYDASNLVSGIPPRFSGSGSGTDFTLNIHPVEKVDAATYHCQQSTEDPWTFGGGTKLEIK
notes: Three chains: anti-CD3 single-chain unit (full light chain - linker - full heavy chain), anti-CD19 heavy chain, anti-CD19 light chain; constant regions preferably IgG4, linker preferably (GGGGS)6; also called 双特异抗体JY039; not shown: linker (GGGGX)n, X = Gly or Ser, n = 1-6; preferred X = Ser and n = 6; IgG4 heavy chain constant region (preferred; light chain constant region of the anti-CD19 unit; …)
B2: 抗CD19的单克隆抗体 (built from the anti-CD19 sequences of JY039) (antibody, V domains shown)
VH: QVQLQQSGAELVRPGSSVKISCKASGYAFSSYWMNWVKQRPGQGLEWIGQIWPGDGDTNYNGKFKGKATLTADESSSTAYMQLSSLASEDSAVYFCARRETTTVGRYYYAMDYWGQGTTVTVSS
VL: DIQLTQSPASLAVSLGQRATISCKASQSVDYDGDSYLNWYQQIPGQPPKLLIYDASNLVSGIPPRFSGSGSGTDFTLNIHPVEKVDAATYHCQQSTEDPWTFGGGTKLEIK
notes: also called AntiCD19McAb; 抗CD19单克隆抗体
B3: v5851双特异抗体 (专利CN105531374 A) (bispecific antibody)
chain 1: not shown
chain 2: not shown
chain 3: DIVMTQSPATLSLSPGERATLSCRSSKSLQNVNGNTYLYWFQQKPGQSPQLLIYRMSNLNSGVPDRFSGSGSGTEFTLTISSLEPEDFAVYYCMQHLEYPITFGAGTKLEIKRTVAAPSVFIFPPSDEQLKSGTASVVCLLNNFYPREAKVQWKVDNALQSGNSQESVTEQDSKDSTYSLSSTLTLSKADYEKHKVYACEVTHQGLSSPVTKSFNRGEC

Tests used:
[1] = target: T1, CD19 (on Raji lymphoma cells); assay: flow cytometry on Raji cells (CD19 positive), Alexa488 anti-human IgG-Fc, MFI fitted
[2] = target: T1, CD19 (on Raji lymphoma cells); assay: cell-based or functional assay
[3] = target: T2, CD3 (on Jurkat T cells) (UniProt P07766 23-207); assay: flow cytometry on Jurkat cells (CD3 positive), Alexa488 anti-human IgG-Fc, MFI fitted
T2 construct: whole, on cells; Jurkat is a human cell line; also called CD3抗原; 细胞表面CD3
T2 sequence (P07766 23-207): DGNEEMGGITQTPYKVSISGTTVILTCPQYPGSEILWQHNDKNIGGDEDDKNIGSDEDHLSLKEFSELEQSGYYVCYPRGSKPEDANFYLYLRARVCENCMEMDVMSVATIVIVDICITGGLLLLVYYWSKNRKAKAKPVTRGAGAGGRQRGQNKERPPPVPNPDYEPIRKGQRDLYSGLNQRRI

Binder | EC50 [1] [nM] | EC50 of PBMC-mediated killing of Raji cells (LDH release) [2] [nM] | EC50 [3] [nM]
B1 | 1.02 | 0.00126 | –
B2 | 0.191 | 0.222 | –
B3 | 2.49 | 0.03 | 59.8
